The results in this text go back to patent US20180086849A1 (Hoffmann-La Roche, published 2018).

In assay [1] the target is T1, Human EGFR (immobilized on CM5 chip) (human, UniProt P00533 25-645, limits assumed).
T1 construct: also called tumor antigen
The assay is described as follows: SPR (Biacore T100): construct captured at 200 nM on immobilised human EGFR, then CD3 fusion at 2000 nM.

Assay [2] deals with T2, human CEA (Carcinoembryonic antigen) on cells (human, UniProt P06731 35-685).
T2 sequence (looked up): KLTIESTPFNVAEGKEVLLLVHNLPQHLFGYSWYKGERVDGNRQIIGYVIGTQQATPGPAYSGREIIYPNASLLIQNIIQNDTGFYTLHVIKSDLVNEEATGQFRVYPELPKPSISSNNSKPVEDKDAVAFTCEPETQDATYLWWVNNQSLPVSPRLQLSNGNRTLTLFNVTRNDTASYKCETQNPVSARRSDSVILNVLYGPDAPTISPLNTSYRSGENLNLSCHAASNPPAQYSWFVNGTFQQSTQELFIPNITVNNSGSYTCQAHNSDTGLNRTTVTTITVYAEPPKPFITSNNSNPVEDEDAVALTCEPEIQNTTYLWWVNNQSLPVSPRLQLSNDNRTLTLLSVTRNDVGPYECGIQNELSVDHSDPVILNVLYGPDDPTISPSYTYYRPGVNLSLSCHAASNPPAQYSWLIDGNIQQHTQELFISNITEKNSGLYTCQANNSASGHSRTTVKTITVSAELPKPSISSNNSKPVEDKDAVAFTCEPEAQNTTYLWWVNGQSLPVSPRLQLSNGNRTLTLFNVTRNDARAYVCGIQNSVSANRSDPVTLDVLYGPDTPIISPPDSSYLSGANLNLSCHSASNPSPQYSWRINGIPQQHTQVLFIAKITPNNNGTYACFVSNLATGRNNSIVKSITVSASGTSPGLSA
Kind of assay: cell-based or functional assay.

Assay [3] has as its target human MCSP (Melanoma-associated Chondroitin Sulfate Proteoglycan) on cells (human, UniProt Q6UVK1 30-2322). Kind of assay: cell-based or functional assay.
For the next assay, the target named is Her2 on KPL-4 cells (human (human cell line KPL-4), UniProt P04626 23-1255). Kind of assay: cell-based or functional assay.

human MCSP (Melanoma-associated Chondroitin Sulfate Proteoglycan) on cells, sequence (Q6UVK1 30-2322): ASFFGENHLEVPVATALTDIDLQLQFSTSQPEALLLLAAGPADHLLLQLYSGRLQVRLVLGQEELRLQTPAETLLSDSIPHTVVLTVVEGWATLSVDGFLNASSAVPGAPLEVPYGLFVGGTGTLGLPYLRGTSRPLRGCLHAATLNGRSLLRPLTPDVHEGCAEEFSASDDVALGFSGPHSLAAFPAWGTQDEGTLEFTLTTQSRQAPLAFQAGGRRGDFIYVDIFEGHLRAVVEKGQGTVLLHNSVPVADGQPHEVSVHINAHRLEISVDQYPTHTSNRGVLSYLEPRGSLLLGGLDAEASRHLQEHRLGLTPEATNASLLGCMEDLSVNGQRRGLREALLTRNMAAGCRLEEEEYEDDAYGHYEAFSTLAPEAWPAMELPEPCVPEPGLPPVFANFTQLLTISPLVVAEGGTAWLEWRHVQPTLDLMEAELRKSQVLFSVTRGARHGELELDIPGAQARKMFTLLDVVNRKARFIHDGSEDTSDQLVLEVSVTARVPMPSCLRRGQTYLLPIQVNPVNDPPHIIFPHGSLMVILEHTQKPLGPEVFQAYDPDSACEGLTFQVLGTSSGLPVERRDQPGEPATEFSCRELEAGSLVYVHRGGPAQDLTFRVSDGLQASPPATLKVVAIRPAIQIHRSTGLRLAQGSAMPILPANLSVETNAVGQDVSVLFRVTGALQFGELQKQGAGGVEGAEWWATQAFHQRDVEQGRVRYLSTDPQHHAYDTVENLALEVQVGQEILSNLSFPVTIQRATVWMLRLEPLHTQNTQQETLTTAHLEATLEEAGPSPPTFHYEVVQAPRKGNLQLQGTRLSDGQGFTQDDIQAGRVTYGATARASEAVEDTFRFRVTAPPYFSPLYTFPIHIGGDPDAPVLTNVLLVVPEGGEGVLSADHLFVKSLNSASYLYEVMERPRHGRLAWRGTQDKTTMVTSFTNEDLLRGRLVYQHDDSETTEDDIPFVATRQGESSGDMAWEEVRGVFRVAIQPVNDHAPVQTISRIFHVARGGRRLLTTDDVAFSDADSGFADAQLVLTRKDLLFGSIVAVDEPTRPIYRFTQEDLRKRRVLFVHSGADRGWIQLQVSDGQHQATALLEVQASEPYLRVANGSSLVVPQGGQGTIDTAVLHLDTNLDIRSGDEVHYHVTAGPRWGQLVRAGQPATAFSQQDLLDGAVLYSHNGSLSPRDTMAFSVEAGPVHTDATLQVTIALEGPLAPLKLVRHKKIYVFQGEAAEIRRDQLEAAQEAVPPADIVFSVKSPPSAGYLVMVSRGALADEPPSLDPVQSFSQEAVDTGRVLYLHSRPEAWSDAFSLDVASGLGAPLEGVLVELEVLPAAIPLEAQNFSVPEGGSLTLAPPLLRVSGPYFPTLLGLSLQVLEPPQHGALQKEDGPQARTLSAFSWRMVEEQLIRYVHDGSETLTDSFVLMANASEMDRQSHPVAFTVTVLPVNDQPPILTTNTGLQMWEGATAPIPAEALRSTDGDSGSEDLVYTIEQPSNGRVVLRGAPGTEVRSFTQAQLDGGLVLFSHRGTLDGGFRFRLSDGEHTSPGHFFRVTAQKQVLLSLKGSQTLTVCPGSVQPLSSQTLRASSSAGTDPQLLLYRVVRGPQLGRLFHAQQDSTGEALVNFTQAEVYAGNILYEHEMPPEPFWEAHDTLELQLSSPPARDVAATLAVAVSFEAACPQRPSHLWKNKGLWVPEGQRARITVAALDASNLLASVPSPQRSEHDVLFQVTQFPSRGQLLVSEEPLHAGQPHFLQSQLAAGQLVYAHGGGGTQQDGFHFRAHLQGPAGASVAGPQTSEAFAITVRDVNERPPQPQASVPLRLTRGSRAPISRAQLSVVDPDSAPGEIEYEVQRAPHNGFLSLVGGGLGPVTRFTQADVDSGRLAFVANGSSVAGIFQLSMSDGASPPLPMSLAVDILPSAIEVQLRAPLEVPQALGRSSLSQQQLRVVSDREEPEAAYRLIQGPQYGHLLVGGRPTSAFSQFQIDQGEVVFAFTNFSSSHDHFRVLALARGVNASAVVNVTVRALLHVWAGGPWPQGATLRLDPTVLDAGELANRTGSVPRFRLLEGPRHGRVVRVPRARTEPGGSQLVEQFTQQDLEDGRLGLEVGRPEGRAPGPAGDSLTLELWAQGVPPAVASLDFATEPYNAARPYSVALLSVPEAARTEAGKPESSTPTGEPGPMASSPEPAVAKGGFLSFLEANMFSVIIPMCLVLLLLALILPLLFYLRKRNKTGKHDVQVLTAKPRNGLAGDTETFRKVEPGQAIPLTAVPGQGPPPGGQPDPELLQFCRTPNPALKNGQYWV

B1: 2+1 IgG scFab, P329G LALA (anti-EGFR/anti-huCD3) (bispecific antibody)
chain 1: QVQLVQSGAEVKKPGSSVKVSCKASGFTFTDYKIHWVRQAPGQGLEWMGYFNPNSGYSTYAQKFQGRVTITADKSTSTAYMELSSLRSEDTAVYYCARLSPGGYYVMDAWGQGTTVTVSSASTKGPSVFPLAPSSKSTSGGTAALGCLVKDYFPEPVTVSWNSGALTSGVHTFPAVLQSSGLYSLSSVVTVPSSSLGTQTYICNVNHKPSNTKVDKKVEPKSCDKTHTCPPCPAPEAAGGPSVFLFPPKPKDTLMISRTPEVTCVVVDVSHEDPEVKFNWYVDGVEVHNAKTKPREEQYNSTYRVVSVLTVLHQDWLNGKEYKCKVSNKALGAPIEKTISKAKGQPREPQVCTLPPSRDELTKNQVSLSCAVKGFYPSDIAVEWESNGQPENNYKTTPPVLDSDGSFFLVSKLTVDKSRWQQGNVFSCSVMHEALHNHYTQKSLSLSPGK
chain 2: DIQMTQSPSSLSASVGDRVTITCRASQGINNYLNWYQQKPGKAPKRLIYNTNNLQTGVPSRFSGSGSGTEFTLTISSLQPEDFATYYCLQHNSFPTFGQGTKLEIKRTVAAPSVFIFPPSDEQLKSGTASVVCLLNNFYPREAKVQWKVDNALQSGNSQESVTEQDSKDSTYSLSSTLTLSKADYEKHKVYACEVTHQGLSSPVTKSFNRGEC
chain 3: not shown
notes: also called 2+1 IgG scFab (EGFR)
On to B1, for which, in assay [1], the binding result is on record as “binds”.

B2: 1+1 IgG scFab, one armed (anti-EGFR/anti-huCD3) (bispecific antibody)
chain 1: not shown
chain 2: B1 chain 1
chain 3: B1 chain 2
For B2, in assay [1], the binding result is recorded as “binds”.

B3: 1+1 IgG scFab, one armed inverted (anti-EGFR/anti-huCD3) (bispecific antibody)
chain 1: not shown
chain 2: not shown
chain 3: EVQLVESGGGLVQPGGSLRLSCAASGYSFTGYTMNWVRQAPGKGLEWVALINPYKGVSTYNQKFKDRFTISVDKSKNTAYLQMNSLRAEDTAVYYCARSGYYGDSDWYFDVWGQGTLVTVSSASTKGPSVFPLAPSSKSTSGGTAALGCLVKDYFPEPVTVSWNSGALTSGVHTFPAVLQSSGLYSLSSVVTVPSSSLGTQTYICNVNHKPSNTKVDKKVEPKSCDKTHTCPPCPAPEAAGGPSVFLFPPKPKDTLMISRTPEVTCVVVDVSHEDPEVKFNWYVDGVEVHNAKTKPREEQYNSTYRVVSVLTVLHQDWLNGKEYKCKVSNKALGAPIEKTISKAKGQPREPQVCTLPPSRDELTKNQVSLSCAVKGFYPSDIAVEWESNGQPENNYKTTPPVLDSDGSFFLVSKLTVDKSRWQQGNVFSCSVMHEALHNHYTQKSLSLSPGK
For B3, the binding result in assay [1] is “binds”.

B4: 2+1 IgG Crossfab, inverted; VL/VH exchange (CH1A1A/V9), anti-CEA/anti-huCD3 (bispecific antibody)
chain 1: EVQLVESGGGLVQPGGSLRLSCAASGYSFTGYTMNWVRQAPGKGLEWVALINPYKGVSTYNQKFKDRFTISVDKSKNTAYLQMNSLRAEDTAVYYCARSGYYGDSDWYFDVWGQGTLVTVSSASVAAPSVFIFPPSDEQLKSGTASVVCLLNNFYPREAKVQWKVDNALQSGNSQESVTEQDSKDSTYSLSSTLTLSKADYEKHKVYACEVTHQGLSSPVTKSFNRGEC
chain 2: not shown
chain 3: QVQLVQSGAEVKKPGASVKVSCKASGYTFTEFGMNWVRQAPGQGLEWMGWINTKTGEATYVEEFKGRVTFTTDTSTSTAYMELRSLRSDDTAVYYCARWDFAYYVEAMDYWGQGTTVTVSSASTKGPSVFPLAPSSKSTSGGTAALGCLVKDYFPEPVTVSWNSGALTSGVHTFPAVLQSSGLYSLSSVVTVPSSSLGTQTYICNVNHKPSNTKVDKKVEPKSCDKTHTCPPCPAPEAAGGPSVFLFPPKPKDTLMISRTPEVTCVVVDVSHEDPEVKFNWYVDGVEVHNAKTKPREEQYNSTYRVVSVLTVLHQDWLNGKEYKCKVSNKALGAPIEKTISKAKGQPREPQVCTLPPSRDELTKNQVSLSCAVKGFYPSDIAVEWESNGQPENNYKTTPPVLDSDGSFFLVSKLTVDKSRWQQGNVFSCSVMHEALHNHYTQKSLSLSPGK
chain 4: DIQMTQSPSSLSASVGDRVTITCKASAAVGTYVAWYQQKPGKAPKLLIYSASYRKRGVPSRFSGSGSGTDFTLTISSLQPEDFATYYCHQYYTYPLFTFGQGTKLEIKRTVAAPSVFIFPPSDEQLKSGTASVVCLLNNFYPREAKVQWKVDNALQSGNSQESVTEQDSKDSTYSLSSTLTLSKADYEKHKVYACEVTHQGLSSPVTKSFNRGEC
As to B4, in assay [2], the “EC50 of T cell-mediated killing (LDH release) of LS-174T cells, human PBMCs, 28 h” value turned out to be 0.955 nM and the “EC50 of T cell-mediated killing (LDH release) of MKN-45 cells, human PBMCs, 28 h” value was found to be 0.243 nM.

B5: 1+1 IgG-Crossfab light chain fusion (CH1A1A/V9), anti-CEA/anti-huCD3 (bispecific antibody)
chain 1: DIQMTQSPSSLSASVGDRVTITCRASQDIRNYLNWYQQKPGKAPKLLIYYTSRLESGVPSRFSGSGSGTDYTLTISSLQPEDFATYYCQQGNTLPWTFGQGTKVEIKSSASTKGPSVFPLAPSSKSTSGGTAALGCLVKDYFPEPVTVSWNSGALTSGVHTFPAVLQSSGLYSLSSVVTVPSSSLGTQTYICNVNHKPSNTKVDKKVEPKSC
chain 2: DIQMTQSPSSLSASVGDRVTITCKASAAVGTYVAWYQQKPGKAPKLLIYSASYRKRGVPSRFSGSGSGTDFTLTISSLQPEDFATYYCHQYYTYPLFTFGQGTKLEIKRTVAAPSVFIFPPSDEQLKSGTASVVCLLNNFYPREAKVQWKVDNALQSGNSQESVTEQDSKDSTYSLSSTLTLSKADYEKHKVYACEVTHQGLSSPVTKSFNRGECGGGGSGGGGSGGGGSGGGGSEVQLVESGGGLVQPGGSLRLSCAASGYSFTGYTMNWVRQAPGKGLEWVALINPYKGVSTYNQKFKDRFTISVDKSKNTAYLQMNSLRAEDTAVYYCARSGYYGDSDWYFDVWGQGTLVTVSSASVAAPSVFIFPPSDEQLKSGTASVVCLLNNFYPREAKVQWKVDNALQSGNSQESVTEQDSKDSTYSLSSTLTLSKADYEKHKVYACEVTHQGLSSPVTKSFNRGEC
chain 3: not shown
chain 4: DKTHTCPPCPAPEAAGGPSVFLFPPKPKDTLMISRTPEVTCVVVDVSHEDPEVKFNWYVDGVEVHNAKTKPREEQYNSTYRVVSVLTVLHQDWLNGKEYKCKVSNKALGAPIEKTISKAKGQPREPQVCTLPPSRDELTKNQVSLSCAVKGFYPSDIAVEWESNGQPENNYKTTPPVLDSDGSFFLVSKLTVDKSRWQQGNVFSCSVMHEALHNHYTQKSLSLSPGK
For the molecule B5, in assay [2], the “EC50 of T cell-mediated killing (LDH release) of LS-174T cells, human PBMCs, 28 h” value was 1.56 nM; the “EC50 of T cell-mediated killing (LDH release) of MC38-huCEA cells, human PBMCs, 24 h” value is roughly 3.2 nM; the “EC50 of T cell-mediated killing (LDH release) of MKN-45 cells, human PBMCs, 28 h” value worked out at 0.213 nM.

B6: 1+1 IgG scFab (anti-EGFR/anti-huCD3) (bispecific antibody)
chain 1: B1 chain 2
chain 2: not shown
chain 3: B5 chain 4
With B6, the binding result in assay [1] was “binds”.

B7: aVH TCB (Crossfab fragment with a CD3 binding moiety and two aVH moieties binding MCSP, P329G LALA) (bispecific antibody)
light: SASYRKR
heavy 1: HQYYTYPLFT
heavy 2: QAVVTQEPSLTVSPGGTVTLTCGSSTGAVTTSNYANWVQEKPGQAFRGLIGGTNKRAPGTPARFSGSLLGGKAALTLSGAQPEDEAEYYCALWYSNLWVFGGGTKLTVLSSASTKGPSVFPLAPSSKSTSGGTAALGCLVKDYFPEPVTVSWNSGALTSGVHTFPAVLQSSGLYSLSSVVTVPSSSLGTQTYICNVNHKPSNTKVDKKVEPKSC
Regarding B7, in assay [3], the “EC50 [pM] 24 h of T-cell mediated killing of MV-3 cells” value was found to be 9120 pM and the “EC50 [pM] 48 h of T-cell mediated killing of MV-3 cells” value was 8970 pM.

B8: Darpin TCB (Crossfab fragment with a CD3 binding moiety and two Darpin moieties binding HER2, P329G LALA) (bispecific antibody)
light: EVQLVESGGGLVQPGGSLRLSCAASGFNIKDTYIGWVRRAPGKGTELVARIYPTNGYTRYADSVKGRFTISADTSKNTAYLQMNSLRAEDTAVYYCARTSWGGWLSGDYWGQGTLVTVSSDKTHTCPPCPAPEAAGGPSVFLFPPKPKDTLMISRTPEVTCVVVDVSHEDPEVKFNWYVDGVEVHNAKTKPREEQYNSTYRVVSVLTVLHQDWLNGKEYKCKVSNKALGAPIEKTISKAKGQPREPQVCTLPPSRDELTKNQVSLSCAVKGFYPSDIAVEWESNGQPENNYKTTPPVLDSDGSFFLVSKLTVDKSRWQQGNVFSCSVMHEALHNHYTQKSLSLSPGK
heavy 1: not shown
heavy 2: B7 heavy 2
With B8, in the assay with Her2 on KPL-4 cells, the “EC50 [pM] 24 h of T-cell mediated killing of KPL-4 cells” value was found to be 376 pM and the “EC50 [pM] 48 h of T-cell mediated killing of KPL-4 cells” value is 235 pM.
